Data: patent US20200249231

Experiments:
[1] = target: T1, QRQRQ (5-mer on peptide array)
T1 chain: QRQRQ

[2] = target: T2, RQRQR (5-mer on peptide array)
T2 chain: RQRQR

[3] = target: T3, FRQRQ (5-mer on peptide array)
T3 chain: FRQRQ

[4] = target: T4, WQRQR (5-mer on peptide array)
T4 chain: WQRQR

[5] = target: T5, RYSQR (5-mer on peptide array)
T5 chain: RYSQR

[6] = target: T6, DYWLQ (5-mer on peptide array)
T6 chain: DYWLQ

[7] = target: T7, RYTQR (5-mer on peptide array)
T7 chain: RYTQR

[8] = target: T8, WYALQ (5-mer on peptide array)
T8 chain: WYALQ

[9] = target: T9, EYFLQ (5-mer on peptide array)
T9 chain: EYFLQ

[10] = target: T10, QYRQR (5-mer on peptide array)
T10 chain: QYRQR

[11] = target: T11, VRYRQ (5-mer on peptide array)
T11 chain: VRYRQ

[12] = target: T12, YKYRQ (5-mer on peptide array)
T12 chain: YKYRQ

[13] = target: T13, EYWLQ (5-mer on peptide array)
T13 chain: EYWLQ

[14] = target: T14, RFSQR (5-mer on peptide array)
T14 chain: RFSQR

[15] = target: T15, Z-[GGGDYALQGGGG]
T15 chain: GGGDYALQGGGG

[16] = target: T16, DWYLQ (5-mer on peptide array)
T16 chain: DWYLQ

[17] = target: T17, Z-[GGGYRYRQGGGG]
T17 chain: GGGYRYRQGGGG

[18] = target: T18, YRQTR (5-mer on peptide array)
T18 chain: YRQTR

[19] = target: T19, AYRQR (5-mer on peptide array)
T19 chain: AYRQR

[20] = target: T20, DYALQ (5-mer on peptide array)
T20 chain: DYALQ

[21] = target: T21, YRQRA (5-mer on peptide array)
T21 chain: YRQRA

[22] = target: T22, VRQRQ (5-mer on peptide array)
T22 chain: VRQRQ

[23] = target: T23, LRYRQ (5-mer on peptide array)
T23 chain: LRYRQ

[24] = target: T24, EWIAQ (5-mer on peptide array)
T24 chain: EWIAQ

[25] = target: T25, DWVAQ (5-mer on peptide array)
T25 chain: DWVAQ

[26] = target: T26, DYVAQ (5-mer on peptide array)
T26 chain: DYVAQ

[27] = target: T27, EWVAQ (5-mer on peptide array)
T27 chain: EWVAQ

[28] = target: T28, EYVLQ (5-mer on peptide array)
T28 chain: EYVLQ

[29] = target: T29, EYALQ (5-mer on peptide array)
T29 chain: EYALQ

[30] = target: T30, PRYRQ (5-mer on peptide array)
T30 chain: PRYRQ

[31] = target: T31, QRQTR (5-mer on peptide array)
T31 chain: QRQTR

[32] = target: T32, EWALQ (5-mer on peptide array)
T32 chain: EWALQ

[33] = target: T33, RYRQR (5-mer on peptide array)
T33 chain: RYRQR

[34] = target: T34, FRQRG (5-mer on peptide array)
T34 chain: FRQRG

[35] = target: T35, EYVAQ (5-mer on peptide array)
T35 chain: EYVAQ

[36] = target: T36, YRQSR (5-mer on peptide array)
T36 chain: YRQSR

[37] = target: T37, YQRQR (5-mer on peptide array)
T37 chain: YQRQR

[38] = target: T38, YRYRQ (5-mer on peptide array)
T38 chain: YRYRQ

[39] = target: T39, DYFLQ (5-mer on peptide array)
T39 chain: DYFLQ

[40] = target: T40, DWALQ (5-mer on peptide array)
T40 chain: DWALQ

B1: Streptomyces mobaraensis microbial transglutaminase (protein)
chain: DSDDRVTPPAEPLDRMPDPYRPSYGRAETVVNNYIRKWQQVYSHRDGRKQQMTEEQREWLSYGCVGVTWVNSGQYPTNRLAFASFDEDRFKNELKNGRPRSGETRAEFEGRVAKESFDEEKGFQRAREVASVMNRALENAHDESAYLDNLKKELANGNDALRNEDARSPFYSALRNTPSFKERNGGNHDPSRMKAVIYSKHFWSGQDRSSSADKRKYGDPDAFRPAPGTGLVDMSRDRNIPRSPTSPGEGFVNFDYGWFGAQTEADADKTVWTHGNHYHAPNGSLGAMHVYESKFRNWSEGYSDFDRGAYVITFIPKSWNTAPDKVKQGWP
In the case of B1, the “5-mer peptide array signal with MTG” value [1] is reported as “found in the mid-field of the signal distribution on the array performed with MTG”, the “5-mer peptide array signal with MTG” value [2] is reported as “found in the mid-field of the signal distribution on the array performed with MTG” and the “5-mer peptide array signal with MTG” value [3] is reported as “found in the mid-field of the signal distribution on the array performed with MTG”. For the same protein, the “5-mer peptide array signal with MTG” value [4] was “found in the mid-field of the signal distribution on the array performed with MTG”, the “5-mer peptide array signal with MTG” value [5] was “found in the mid-field of the signal distribution on the array performed with MTG” and the “5-mer peptide array, incorporation of N-(biotinyl)cadaverine” value (shortened to “5-mer peptide array, incorporation”) [6] was “The 16 glutamine-donor substrates identified with MTG”. For the same protein, the “5-mer peptide array signal with MTG” value [7] was “found in the mid-field of the signal distribution on the array performed with MTG”, the “5-mer peptide array, incorporation” value [8] was “The 16 glutamine-donor substrates identified with MTG” and the “5-mer peptide array, incorporation” value [9] was “The 16 glutamine-donor substrates identified with MTG”. The “5-mer peptide array signal with MTG” value [10] was “found in the mid-field of the signal distribution on the array performed with MTG”, the “5-mer peptide array signal with MTG” value [11] was “found in the mid-field of the signal distribution on the array performed with MTG” and the “5-mer peptide array signal with MTG” value [12] was “found in the mid-field of the signal distribution on the array performed with MTG”. For the same protein, the “5-mer peptide array, incorporation” value [13] was “The 16 glutamine-donor substrates identified with MTG”, the “5-mer peptide array signal with MTG” value [14] was “found in the mid-field of the signal distribution on the array performed with MTG” and the KM [15] was 847 µM. The Vmax [15] was 36.7 pmol/s, the kcat [15] was 1.39 s⁻¹ and the kcat/KM [15] was 1640 M⁻¹ s⁻¹. For the same protein, the “5-mer peptide array, incorporation” value [16] was “The 16 glutamine-donor substrates identified with MTG”, the KM [17] was 644 µM and the Vmax [17] was 21.5 pmol/s. The kcat [17] was 0.93 s⁻¹, the kcat/KM [17] was 1440 M⁻¹ s⁻¹ and the “5-mer peptide array signal with MTG” value [18] was “found in the mid-field of the signal distribution on the array performed with MTG”. The “5-mer peptide array signal with MTG” value [19] was “found in the mid-field of the signal distribution on the array performed with MTG”, the “5-mer peptide array, incorporation” value [20] was “The 16 glutamine-donor substrates identified with MTG” and the “5-mer peptide array signal with MTG” value [21] was “found in the mid-field of the signal distribution on the array performed with MTG”. The “5-mer peptide array signal with MTG” value [22] was “found in the mid-field of the signal distribution on the array performed with MTG”, the “5-mer peptide array signal with MTG” value [23] was “found in the mid-field of the signal distribution on the array performed with MTG” and the “5-mer peptide array, incorporation” value [24] was “The 16 glutamine-donor substrates identified with MTG”. The “5-mer peptide array, incorporation” value [25] was “The 16 glutamine-donor substrates identified with MTG”, the “5-mer peptide array, incorporation” value [26] was “The 16 glutamine-donor substrates identified with MTG” and the “5-mer peptide array, incorporation” value [27] was “The 16 glutamine-donor substrates identified with MTG”. For the same protein, the “5-mer peptide array, incorporation” value [28] was “The 16 glutamine-donor substrates identified with MTG”, the “5-mer peptide array, incorporation” value [29] was “The 16 glutamine-donor substrates identified with MTG” and the “5-mer peptide array signal with MTG” value [30] was “found in the mid-field of the signal distribution on the array performed with MTG”. For the same protein, the “5-mer peptide array signal with MTG” value [31] was “found in the mid-field of the signal distribution on the array performed with MTG”, the “5-mer peptide array, incorporation” value [32] was “The 16 glutamine-donor substrates identified with MTG” and the “5-mer peptide array signal with MTG” value [33] was “found in the mid-field of the signal distribution on the array performed with MTG”. The “5-mer peptide array signal with MTG” value [34] was “found in the mid-field of the signal distribution on the array performed with MTG”, the “5-mer peptide array, incorporation” value [35] was “The 16 glutamine-donor substrates identified with MTG” and the “5-mer peptide array signal with MTG” value [36] was “found in the mid-field of the signal distribution on the array performed with MTG”. For the same protein, the “5-mer peptide array signal with MTG” value [37] was “found in the mid-field of the signal distribution on the array performed with MTG”, the “5-mer peptide array signal with MTG” value [38] was “found in the mid-field of the signal distribution on the array performed with MTG” and the “5-mer peptide array, incorporation” value [39] was “The 16 glutamine-donor substrates identified with MTG”. The “5-mer peptide array, incorporation” value [40] was “The 16 glutamine-donor substrates identified with MTG”.
